Laboratory results: patent publication US20030186329

Experiments:
peptide LGGSGRKASLSLE [1] = molecular target: T1, peptide LGGSGRKASLSLE; assay: kinetics of peptide hydrolysis by the enzyme, HPLC, Eadie-Hofstee
T1 chain: LGGSGRKASLSLE

[2] = molecular target: T2, peptide (II) of Table 1, LGGSGQRGRKALE; assay: as above
T2 chain: LGGSGQRGRKALE

[3] = molecular target: T3, peptide (III) of Table 1, LGGSGERARGALE; assay: as above
T3 chain: LGGSGERARGALE

peptide LGGSGRSANAILE [4] = molecular target: T4, peptide LGGSGRSANAILE; assay: as above
T4 chain: LGGSGRSANAILE

peptide LGGSGRNAQVRLE [5] = molecular target: T5, peptide LGGSGRNAQVRLE; assay: as above
T5 chain: LGGSGRNAQVRLE

[6] = molecular target: T6, peptide (I), native cleavage sequence from plasminogen; assay: as above
T6 chain: KKSPGRVVGGSVAH

peptide LGGYGRSANAILE [7] = molecular target: T7, peptide LGGYGRSANAILE; assay: as above
T7 chain: LGGYGRSANAILE

[8] = molecular target: T8, peptide (IV) of Table 1, LGGSGHYGRSGLE; assay: as above
T8 chain: LGGSGHYGRSGLE

peptide LGQRGRSANAILE [9] = molecular target: T9, peptide LGQRGRSANAILE; assay: as above
T9 chain: LGQRGRSANAILE

peptide LGGSGRSATRDLE [10] = molecular target: T10, peptide LGGSGRSATRDLE; assay: as above
T10 chain: LGGSGRSATRDLE

peptide LGGRGRSANAILE [11] = molecular target: T11, peptide LGGRGRSANAILE; assay: as above
T11 chain: LGGRGRSANAILE

[12] = molecular target: T12, peptide (V) of Table 1, YGRS; assay: kinetics of peptide hydrolysis by the enzyme, HILIC HPLC, Eadie-Hofstee
T12 chain: YGRS

peptide SGRS [13] = molecular target: T13, peptide SGRS; assay: as above
T13 chain: SGRS

peptide GSGKS [14] = molecular target: T14, peptide GSGKS; assay: as above
T14 chain: GSGKS

[15] = molecular target: T15, peptide (VII) of Table 1, FRGRK; assay: as above
T15 chain: FRGRK

peptide SGRSA [16] = molecular target: T16, peptide SGRSA; assay: as above
T16 chain: SGRSA

[17] = molecular target: T17, peptide (VI) of Table 1, RGRK; assay: as above
T17 chain: RGRK

peptide SGKS [18] = molecular target: T18, peptide SGKS; assay: as above
T18 chain: SGKS

peptide LGGSGRKASLSLE [19] = molecular target: T1, peptide LGGSGRKASLSLE
[20] = molecular target: T12, peptide (V) of Table 1, YGRS
[21] = molecular target: T19, fusion of maltose binding protein, QRGRSA and the HY4 gene product of Arabidopsis thaliana, Q43125
T19 chain: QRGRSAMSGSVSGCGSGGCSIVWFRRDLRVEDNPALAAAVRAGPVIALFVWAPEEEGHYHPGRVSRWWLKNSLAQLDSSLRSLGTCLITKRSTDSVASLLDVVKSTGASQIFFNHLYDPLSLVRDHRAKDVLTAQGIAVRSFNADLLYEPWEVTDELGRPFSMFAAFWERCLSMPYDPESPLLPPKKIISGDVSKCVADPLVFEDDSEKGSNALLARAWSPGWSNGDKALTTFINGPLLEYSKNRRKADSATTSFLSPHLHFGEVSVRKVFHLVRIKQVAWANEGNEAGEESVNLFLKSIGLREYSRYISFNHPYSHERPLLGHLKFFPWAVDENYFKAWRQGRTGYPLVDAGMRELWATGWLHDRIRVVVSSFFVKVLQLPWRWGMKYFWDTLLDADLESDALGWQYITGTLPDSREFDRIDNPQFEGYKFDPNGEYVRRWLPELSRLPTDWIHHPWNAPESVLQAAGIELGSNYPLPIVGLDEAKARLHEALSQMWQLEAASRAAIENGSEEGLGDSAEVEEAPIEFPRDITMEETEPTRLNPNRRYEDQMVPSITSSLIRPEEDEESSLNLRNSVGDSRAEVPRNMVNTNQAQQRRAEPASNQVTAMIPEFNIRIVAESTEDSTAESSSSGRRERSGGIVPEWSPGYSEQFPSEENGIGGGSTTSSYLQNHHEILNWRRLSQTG

[22] = molecular target: T2, peptide (II) of Table 1, LGGSGQRGRKALE
[23] = molecular target: T3, peptide (III) of Table 1, LGGSGERARGALE
peptide LGGSGRSANAILE [24] = molecular target: T4, peptide LGGSGRSANAILE
peptide LGGSGRNAQVRLE [25] = molecular target: T5, peptide LGGSGRNAQVRLE
peptide SGRS [26] = molecular target: T13, peptide SGRS
[27] = molecular target: T6, peptide (I), native cleavage sequence …
peptide GSGKS [28] = molecular target: T14, peptide GSGKS
[29] = molecular target: T15, peptide (VII) of Table 1, FRGRK
peptide LGGYGRSANAILE [30] = molecular target: T7, peptide LGGYGRSANAILE
[31] = molecular target: T8, peptide (IV) of Table 1, LGGSGHYGRSGLE
peptide SGRSA [32] = molecular target: T16, peptide SGRSA
peptide LGQRGRSANAILE [33] = molecular target: T9, peptide LGQRGRSANAILE
[34] = molecular target: T17, peptide (VI) of Table 1, RGRK
peptide SGKS [35] = molecular target: T18, peptide SGKS
peptide LGGSGRSATRDLE [36] = molecular target: T10, peptide LGGSGRSATRDLE
peptide LGGRGRSANAILE [37] = molecular target: T11, peptide LGGRGRSANAILE

B1: tissue plasminogen activator (t-PA) (protein)
chain: SYQVICRDEKTQMIYQQHQSWLRPVLRSNRVEYCWCNSGRAQCHSVPVKSCSEPRCFNGGTCQQALYFSDFVCQCPEGFAGKCCEIDTRATCYEDQGISYRGTWSTAESGAECTNWNSSALAQKPYSGRRPDAIRLGLGNHNYCRNPDRDSKPWCYVFKAGKYSSEFCSTPACSEGNSDCYFGNGSAYRGTHSLTESGASCLPWNSMILIGKVYTAQNPSAQALGLGKHNYCRNPDGDAKPWCHVLKNRRLTWEYCDVPSCSTCGLRQYSQPQFRIKGGLFADIASHPWQAAIFAKHRRSPGERFLCGGILISSCWILSAAHCFQERFPPHHLTVILGRTYRVVPGEEEQKFEVEKYIVHKEFDDDTYDNDIALLQLKSDSSRCAQESSVVRTVCLPPADLQLPDWTECELSGYGKHEALSPFYSERLKEAHVRLYPSSRCTSQHLLNRTVTDNMLCAGDTRSGGPQANLHDACQGDSGGPLVCLNDGRMTLVGIISWGLGCGQKDVPGVYTKVTNYLDWIRDNMRP
In the case of B1, the Km (peptide LGGSGRKASLSLE [1]) is reported as 5.1 mM, the Km [2] is reported as 2.3 mM and the Km [3] is reported as 1.41 mM. The Km (peptide LGGSGRSANAILE [4]) was 4.08 mM, the Km (peptide LGGSGRNAQVRLE [5]) was 7 mM and the Km [6] was 15 mM. The Km (peptide LGGYGRSANAILE [7]) was 1.85 mM, the Km [8] was 4.01 mM and the Km (peptide LGQRGRSANAILE [9]) was 3 mM. For the same protein, the Km (peptide LGGSGRSATRDLE [10]) was 1.5 mM, the Km (peptide LGGRGRSANAILE [11]) was 2.4 mM and the Km [12] was 6 mM. For the same protein, the Km (peptide SGRS [13]) was 15 mM, the Km (peptide GSGKS [14]) was 44 mM and the Km [15] was 9.8 mM. It also gave a Km (peptide SGRSA [16]) of 40 mM, a Km [17] of 16.6 mM and a Km (peptide SGKS [18]) of 28 mM. It also gave a kcat (peptide LGGSGRKASLSLE [19]) of 0.168 s⁻¹, a kcat/Km (peptide LGGSGRKASLSLE [19]) of 33 M⁻¹ s⁻¹ and a kcat [20] of 23.7 s⁻¹. The kcat/Km [20] was 3950 M⁻¹ s⁻¹, the “cleavage of fusion protein, SDS-PAGE” value [21] was “t-PA readily cleaved the fusion protein” and the kcat [22] was 0.99 s⁻¹. The kcat/Km [22] was 430 M⁻¹ s⁻¹, the kcat [23] was 0.073 s⁻¹ and the kcat/Km [23] was 52 M⁻¹ s⁻¹. It also gave a kcat (peptide LGGSGRSANAILE [24]) of 0.305 s⁻¹, a kcat/Km (peptide LGGSGRSANAILE [24]) of 75 M⁻¹ s⁻¹ and a kcat (peptide LGGSGRNAQVRLE [25]) of 0.255 s⁻¹. The kcat/Km (peptide LGGSGRNAQVRLE [25]) was 36 M⁻¹ s⁻¹, the kcat (peptide SGRS [26]) was 5 s⁻¹ and the kcat/Km (peptide SGRS [26]) was 330 M⁻¹ s⁻¹. It also gave a kcat [27] of 0.0043 s⁻¹, a kcat/Km [27] of 0.29 M⁻¹ s⁻¹ and a kcat (peptide GSGKS [28]) of 0.07 s⁻¹. The kcat/Km (peptide GSGKS [28]) was 1.6 M⁻¹ s⁻¹, the “fold more efficient cleavage by t-PA than by u-PA” value [29] was “approximately 74 times more efficiently by t-PA than by u-PA” and the kcat [29] was 12.2 s⁻¹. The kcat/Km [29] was 1240 M⁻¹ s⁻¹, the kcat (peptide LGGYGRSANAILE [30]) was 3.29 s⁻¹ and the kcat/Km (peptide LGGYGRSANAILE [30]) was 1800 M⁻¹ s⁻¹. The kcat [31] was 1.29 s⁻¹, the kcat/Km [31] was 322 M⁻¹ s⁻¹ and the kcat (peptide SGRSA [32]) was 2.4 s⁻¹. The kcat/Km (peptide SGRSA [32]) was 60 M⁻¹ s⁻¹, the kcat (peptide LGQRGRSANAILE [33]) was 2.55 s⁻¹ and the kcat/Km (peptide LGQRGRSANAILE [33]) was 850 M⁻¹ s⁻¹. The kcat [34] was 15.3 s⁻¹, the kcat/Km [34] was 992 M⁻¹ s⁻¹ and the “fold decrease of catalytic efficiency against peptide (VI) SGRS” value (peptide SGKS [35]) was “by a factor of 49 for t-PA”. It also gave a kcat (peptide SGKS [35]) of 0.19 s⁻¹, a kcat/Km (peptide SGKS [35]) of 6.8 M⁻¹ s⁻¹ and a kcat (peptide LGGSGRSATRDLE [36]) of 0.068 s⁻¹. It also gave a kcat/Km (peptide LGGSGRSATRDLE [36]) of 45 M⁻¹ s⁻¹, a kcat (peptide LGGRGRSANAILE [37]) of 0.85 s⁻¹ and a kcat/Km (peptide LGGRGRSANAILE [37]) of 350 M⁻¹ s⁻¹.
